Measured values as given in patent US20160340439A1.

How the values were obtained:
Assay in all cases: IP + mass spec of B16 melanoma proteins; ratio to alloIgG
[1] = biological target: Angiomotin-like protein 2 (mouse) (UniProt Q8K371)
[2] = biological target: Arginine and glutamate-rich protein 1 (mouse) (UniProt Q3UL36)
[3] = biological target: CDGSH iron-sulfur domain-containing protein 1 (mouse) (UniProt Q91WS0)
[4] = biological target: Disco-interacting protein 2 homolog B (mouse) (UniProt Q3UH60)
Chain of UniProt Q3UH60 (Q3UH60 whole entry): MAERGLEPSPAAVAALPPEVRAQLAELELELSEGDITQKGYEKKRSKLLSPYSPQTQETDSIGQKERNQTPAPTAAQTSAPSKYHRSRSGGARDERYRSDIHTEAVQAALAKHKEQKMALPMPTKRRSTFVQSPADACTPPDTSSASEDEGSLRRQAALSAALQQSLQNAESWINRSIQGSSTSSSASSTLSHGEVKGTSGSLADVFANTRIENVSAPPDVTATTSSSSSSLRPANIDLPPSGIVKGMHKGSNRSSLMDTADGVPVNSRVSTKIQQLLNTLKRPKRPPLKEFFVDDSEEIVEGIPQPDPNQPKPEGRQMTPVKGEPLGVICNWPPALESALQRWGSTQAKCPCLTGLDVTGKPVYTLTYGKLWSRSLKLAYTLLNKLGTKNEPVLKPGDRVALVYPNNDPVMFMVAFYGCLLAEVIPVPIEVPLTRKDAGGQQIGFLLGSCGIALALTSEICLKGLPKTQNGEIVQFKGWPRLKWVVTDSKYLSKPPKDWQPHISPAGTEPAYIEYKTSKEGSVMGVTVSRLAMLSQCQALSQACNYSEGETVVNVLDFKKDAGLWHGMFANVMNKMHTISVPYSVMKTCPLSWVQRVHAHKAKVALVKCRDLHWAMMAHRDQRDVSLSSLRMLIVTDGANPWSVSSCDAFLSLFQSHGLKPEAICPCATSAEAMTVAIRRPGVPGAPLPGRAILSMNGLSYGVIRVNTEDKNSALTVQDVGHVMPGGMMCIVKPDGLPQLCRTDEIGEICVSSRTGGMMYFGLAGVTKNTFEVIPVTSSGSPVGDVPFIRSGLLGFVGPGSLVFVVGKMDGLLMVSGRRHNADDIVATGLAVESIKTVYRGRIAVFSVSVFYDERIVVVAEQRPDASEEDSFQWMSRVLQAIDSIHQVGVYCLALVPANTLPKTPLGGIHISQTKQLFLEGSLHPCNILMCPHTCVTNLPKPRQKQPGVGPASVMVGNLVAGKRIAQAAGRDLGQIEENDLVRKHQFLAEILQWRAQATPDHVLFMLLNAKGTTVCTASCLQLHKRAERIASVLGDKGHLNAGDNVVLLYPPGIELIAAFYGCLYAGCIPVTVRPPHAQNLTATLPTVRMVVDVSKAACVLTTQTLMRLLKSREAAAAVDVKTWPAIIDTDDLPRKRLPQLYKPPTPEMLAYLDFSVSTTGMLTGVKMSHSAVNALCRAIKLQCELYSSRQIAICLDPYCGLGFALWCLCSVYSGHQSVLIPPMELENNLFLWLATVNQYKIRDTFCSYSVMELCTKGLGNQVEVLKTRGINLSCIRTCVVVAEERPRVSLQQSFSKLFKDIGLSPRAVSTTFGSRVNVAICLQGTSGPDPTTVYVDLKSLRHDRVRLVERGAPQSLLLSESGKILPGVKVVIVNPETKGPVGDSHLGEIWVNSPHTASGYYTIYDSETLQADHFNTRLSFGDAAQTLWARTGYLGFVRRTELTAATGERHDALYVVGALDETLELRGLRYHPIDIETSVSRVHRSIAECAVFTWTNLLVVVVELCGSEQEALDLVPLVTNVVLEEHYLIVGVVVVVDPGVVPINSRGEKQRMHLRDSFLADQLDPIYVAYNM

[5] = biological target: Fibrous sheath-interacting protein 2 (mouse) (UniProt A2ARZ3)
[6] = biological target: Mitochondrial inner membrane protein (mouse) (UniProt Q8CAQ8)
Chain of UniProt Q8CAQ8 (Q8CAQ8 34-757 limits assumed): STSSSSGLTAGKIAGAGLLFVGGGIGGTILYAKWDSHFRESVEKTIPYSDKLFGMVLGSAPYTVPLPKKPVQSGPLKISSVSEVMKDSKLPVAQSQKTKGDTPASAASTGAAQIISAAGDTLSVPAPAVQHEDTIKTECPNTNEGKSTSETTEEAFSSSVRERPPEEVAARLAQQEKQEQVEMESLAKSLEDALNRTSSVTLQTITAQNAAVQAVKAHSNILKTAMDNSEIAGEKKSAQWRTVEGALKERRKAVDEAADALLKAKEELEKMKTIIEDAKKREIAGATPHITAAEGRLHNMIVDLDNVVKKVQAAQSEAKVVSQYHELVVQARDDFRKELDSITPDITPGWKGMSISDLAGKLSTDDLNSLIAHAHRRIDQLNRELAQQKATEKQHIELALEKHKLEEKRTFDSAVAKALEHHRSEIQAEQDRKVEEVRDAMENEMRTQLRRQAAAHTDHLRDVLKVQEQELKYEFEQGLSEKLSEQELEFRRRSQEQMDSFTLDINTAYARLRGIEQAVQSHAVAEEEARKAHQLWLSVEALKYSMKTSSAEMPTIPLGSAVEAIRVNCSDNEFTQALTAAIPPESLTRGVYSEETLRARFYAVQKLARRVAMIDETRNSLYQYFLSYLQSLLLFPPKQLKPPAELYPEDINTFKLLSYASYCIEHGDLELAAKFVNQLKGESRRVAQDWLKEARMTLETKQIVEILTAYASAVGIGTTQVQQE

Nicalin (mouse) = Nicalin (mouse) (UniProt Q8VCM8)
Chain of UniProt Q8VCM8 (Q8VCM8 43-563 limits assumed): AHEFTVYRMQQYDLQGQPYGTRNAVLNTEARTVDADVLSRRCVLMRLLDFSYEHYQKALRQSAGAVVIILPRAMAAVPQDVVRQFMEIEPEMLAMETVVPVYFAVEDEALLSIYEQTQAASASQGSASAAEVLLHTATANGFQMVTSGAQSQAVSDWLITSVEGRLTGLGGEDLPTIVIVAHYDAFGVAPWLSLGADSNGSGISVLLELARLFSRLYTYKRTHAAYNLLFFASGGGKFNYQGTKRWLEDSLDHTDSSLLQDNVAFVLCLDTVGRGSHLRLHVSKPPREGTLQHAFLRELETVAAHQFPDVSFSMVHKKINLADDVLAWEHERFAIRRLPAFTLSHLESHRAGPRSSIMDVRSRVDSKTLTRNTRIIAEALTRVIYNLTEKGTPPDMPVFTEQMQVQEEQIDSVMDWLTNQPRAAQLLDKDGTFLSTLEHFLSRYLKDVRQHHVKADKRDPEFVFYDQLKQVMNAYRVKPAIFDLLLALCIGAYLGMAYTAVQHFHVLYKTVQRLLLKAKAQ

[7] = biological target: Stromal cell-derived factor 2-like protein 1 (mouse) (UniProt Q9ESP1)
Chain of UniProt Q9ESP1 (Q9ESP1 29-221 limits assumed): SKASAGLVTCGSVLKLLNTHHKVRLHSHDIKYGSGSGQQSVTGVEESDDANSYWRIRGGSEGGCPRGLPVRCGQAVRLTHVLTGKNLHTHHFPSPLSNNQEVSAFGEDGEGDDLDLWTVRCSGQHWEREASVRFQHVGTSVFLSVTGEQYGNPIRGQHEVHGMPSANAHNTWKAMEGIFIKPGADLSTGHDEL

[8] = biological target: Translocation protein SEC62 (mouse) (UniProt Q8BU14)
Chain of UniProt Q8BU14 (Q8BU14 whole entry): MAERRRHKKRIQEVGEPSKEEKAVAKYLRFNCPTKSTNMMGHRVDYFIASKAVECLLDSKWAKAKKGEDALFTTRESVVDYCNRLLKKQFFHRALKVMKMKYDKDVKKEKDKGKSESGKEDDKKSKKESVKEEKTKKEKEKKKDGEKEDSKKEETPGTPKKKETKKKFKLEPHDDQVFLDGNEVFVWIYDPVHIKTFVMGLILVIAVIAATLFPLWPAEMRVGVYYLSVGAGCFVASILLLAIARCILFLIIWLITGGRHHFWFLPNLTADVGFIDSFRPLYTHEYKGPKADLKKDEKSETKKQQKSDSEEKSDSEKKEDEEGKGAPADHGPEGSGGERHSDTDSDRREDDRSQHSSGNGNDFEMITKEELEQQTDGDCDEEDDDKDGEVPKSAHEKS

[9] = biological target: Trifunctional enzyme subunit beta, mitochondrial (mouse) (UniProt Q99JY0)
Chain of UniProt Q99JY0 (Q99JY0 35-475 limits assumed): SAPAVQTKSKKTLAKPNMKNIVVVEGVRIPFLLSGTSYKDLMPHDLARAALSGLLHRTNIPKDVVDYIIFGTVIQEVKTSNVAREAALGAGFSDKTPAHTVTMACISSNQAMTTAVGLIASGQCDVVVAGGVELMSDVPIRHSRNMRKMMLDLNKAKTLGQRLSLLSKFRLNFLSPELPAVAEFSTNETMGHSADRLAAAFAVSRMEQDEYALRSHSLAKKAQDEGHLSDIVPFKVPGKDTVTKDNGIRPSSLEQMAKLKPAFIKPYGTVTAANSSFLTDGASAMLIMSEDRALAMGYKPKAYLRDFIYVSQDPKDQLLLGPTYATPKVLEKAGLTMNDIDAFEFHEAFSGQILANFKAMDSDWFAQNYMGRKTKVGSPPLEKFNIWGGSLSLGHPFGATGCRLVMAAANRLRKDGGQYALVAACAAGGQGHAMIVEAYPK

[10] = biological target: Vacuolar protein sorting-associated protein 35 (mouse) (UniProt Q9EQH3)

Chain of UniProt Q8K371 (Q8K371 whole entry): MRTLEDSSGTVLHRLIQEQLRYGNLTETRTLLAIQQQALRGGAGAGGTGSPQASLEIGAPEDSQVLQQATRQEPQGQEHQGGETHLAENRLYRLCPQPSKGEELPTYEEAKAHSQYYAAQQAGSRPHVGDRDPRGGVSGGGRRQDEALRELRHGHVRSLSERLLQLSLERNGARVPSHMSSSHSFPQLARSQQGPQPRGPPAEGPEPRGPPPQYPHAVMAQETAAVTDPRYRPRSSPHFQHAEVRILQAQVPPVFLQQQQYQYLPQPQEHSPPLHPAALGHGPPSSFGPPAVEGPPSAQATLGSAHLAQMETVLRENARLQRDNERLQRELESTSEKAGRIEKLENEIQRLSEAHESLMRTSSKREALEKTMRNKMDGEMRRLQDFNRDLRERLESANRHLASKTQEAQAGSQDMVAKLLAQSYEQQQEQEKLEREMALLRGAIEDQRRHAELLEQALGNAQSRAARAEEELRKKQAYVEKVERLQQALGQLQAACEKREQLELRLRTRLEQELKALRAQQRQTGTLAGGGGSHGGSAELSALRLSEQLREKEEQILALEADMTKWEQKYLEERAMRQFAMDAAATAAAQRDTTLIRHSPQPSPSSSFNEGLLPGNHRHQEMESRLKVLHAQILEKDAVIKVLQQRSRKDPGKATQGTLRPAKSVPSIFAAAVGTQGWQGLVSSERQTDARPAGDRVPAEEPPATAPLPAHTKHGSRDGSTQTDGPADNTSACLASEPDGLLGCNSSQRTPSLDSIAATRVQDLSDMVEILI
Chain of UniProt Q91WS0 (Q91WS0 whole entry, the tested form may be a part): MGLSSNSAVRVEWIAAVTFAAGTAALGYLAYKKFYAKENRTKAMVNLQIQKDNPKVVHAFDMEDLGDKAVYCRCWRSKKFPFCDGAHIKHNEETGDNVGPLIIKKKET
Chain of UniProt Q3UL36 (Q3UL36 whole entry, the tested form may be a part): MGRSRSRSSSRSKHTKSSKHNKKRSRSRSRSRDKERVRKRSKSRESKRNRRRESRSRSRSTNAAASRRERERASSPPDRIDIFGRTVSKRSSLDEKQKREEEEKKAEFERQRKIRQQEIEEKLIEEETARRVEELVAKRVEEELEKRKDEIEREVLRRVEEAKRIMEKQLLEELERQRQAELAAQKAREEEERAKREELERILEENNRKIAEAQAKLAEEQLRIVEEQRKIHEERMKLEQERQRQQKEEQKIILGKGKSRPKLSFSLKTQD

- syn/allo ratio [1]: 6
- syn/allo ratio [2]: 2
- syn/allo ratio [3]: 2
- syn/allo ratio [4]: 4
- syn/allo ratio [5]: 9
- syn/allo ratio [6]: 2.99
- syn/allo ratio (Nicalin (mouse)): 2
- syn/allo ratio [7]: 3
- syn/allo ratio [8]: 4
- syn/allo ratio [9]: 2.6
- syn/allo ratio [10]: 2
Substance: syngeneic IgG (from sera of C57B1/6 mice) (antibody)
